# B1: murine PD-1-transmembrane PD-1-CD28 fusion protein (PTM) (receptor)
# chain: LEVPNGPWRSLTFYPAWLTVSEGANATFTCSLSNWSEDLMLNWNRLSPSNQTEKQAAFCNGLSQPVQDARFQIIQLPNRHDFHMNILDTRRNDSGIYLCGAISLHPKAKIEESPGAELVVTERILETSTRYPSPSPKPEGRFQGMVIGIMSALVGIPVLLLLAWALNSRRNRLLQSDYMNMTPRRPGLTRKPYQPYAPARDFAAYRP
# notes: Expressed on retrovirally transduced primary murine T cells; The entry starts at PD-1 residue 1, so it includes the signal peptide; also called mPTM; PTM fusion protein
# What was measured:
# [1] = biological target: murine PD-1-transmembrane PD-1-CD28 fusion protein (PTM) (murine); test: cell-based or functional assay
# [2] = biological target: T1, recombinant murine PD-L1 Fc chimera (R&D Systems) (murine, UniProt Q9EP73 19-238); test: flow cytometry; transduced murine T cells incubated with recombinant PD-L1-Fc
# T1 construct: also called recombinant PD-L1; recombinant PD-L1-Fc; not shown: Fc part of the bought R&D Systems chimera (detected with anti-human IgG)
# T1 sequence (Q9EP73 19-238, change not shown): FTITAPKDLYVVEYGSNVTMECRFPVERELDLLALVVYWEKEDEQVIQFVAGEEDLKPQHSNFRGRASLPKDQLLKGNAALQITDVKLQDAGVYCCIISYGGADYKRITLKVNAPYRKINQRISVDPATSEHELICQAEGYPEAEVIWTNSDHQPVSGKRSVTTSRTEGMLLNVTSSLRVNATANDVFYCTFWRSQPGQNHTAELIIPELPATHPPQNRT
Molecule,IFN-γ release in coculture of PTM-transduced OT-1 T cells with tumor cells [1] [ng/mL],binding result [2]
full length murine PD-L1 on Panc02-OVA-PD-L1 tumor cells (from UniProt Q9EP73 19-290) (ligand),545,–
B1,–,binds

# — US20220169699A1 (published 2022)
